In the supplement of paper PMC9170038:

System: MS2 coat protein
Test: apparent KD of MS2 coat protein; higher = weaker reporter binding
Details: Eterna round: R107
Description: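 RNA-MaP round R107: designed RNA switches with theophylline, tryptophan, arginine or FMN aptamers are transcribed on-chip within common flanks. They are titrated with SNAP-549-labelled MS2 coat protein in RNA-MaP buffer (100 mM Tris pH 7.5, 80 mM KCl, 4 mM MgCl2), without ligand or with the indicated ligand. Median apparent KD per design.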

[1] = input ligand: theophylline 20 uM
[2] = input ligand: tryptophan 2.4 mM
[3] = input ligand: theophylline 2 mM

Sequence | apparent KD of MS2 coat protein (input ligand: arginine 13.2 mM) [nM] | apparent KD of MS2 coat protein [1] [nM] | apparent KD of MS2 coat protein [2] [nM] | apparent KD of MS2 coat protein [3] [nM] | apparent KD of MS2 coat protein (input ligand: none) [nM]
AUAUUAGACCUGGAUACCAGCGACAUGAGGAUCACCCAUGUAUGUGCAUCAGCCAUGAUAUGCCCUUGGCAGCCACCGAGGUCGU [YYTMULLIN] | 14.1 | 17.9 | 15.1 | – | –
UACUGUCUAACGGCCGCCACUCAGUCUCGGUUGAUUAUCUUAAGUGACAUGAGGAUCACCCAUGUGAGGACCGGGUUGUGCAUAA [theeternabot_exclusion_MS2_Trp_B_40] | 60.4 | 91.3 | – | 96.7 | –
GUUGUAUACUCGGCCGCCACUGAGAGAGUCAUGUAAACAUGAGGAUCACCCAUGUAAUAUAUAUACAGGACCGGGAGUGUGGUAA [4.G] | 9.31 | 16 | 11.8 | 12 | 12.8
AGUCUUGUAGGAAGGAGCGCAUACUUCACAUGAGGAUCACCCAUGUCAAGACGUGAGUCAGUGCAGGUAGGUCGCCUAACUAAGA [Same State - Arginine B (Freestyle 14)] | 18.6 | 28.7 | 18 | 26.3 | 17.3
CGAGUGCUGUCGGCCGCCACUGCACAUGAGGAUCACCCAUGUAAAAGCUGGCUGUGACUGGUGUUCAGGACCGGGACAGGGUCUU [Inriedzaan] | 10.9 | 13.8 | – | 11.7 | –
AUUCAUAACUGAAGGAGCGUGAUAUAAAUUUUUACAUGAGGAUCACCCAUGUUUCAUCGAUCACAGGUAGGUCGCAGAUUCUCAU [JR_SSArginiB_Sub012] | 31.1 | 59.1 | 37.9 | 45.1 | 55.3
GCUAGGUCAUCGGCCGCCACUAACGAUGGCUCCGACAUGAGGAUCACCCAUGUGCCACUUGCGCAUAGGACCGGGAUGACCUAGC [SSTB NP+V+V2 #1] | 17.7 | 24.3 | 11.5 | 17.2 | 15
GCAUUACAUGAGGAUCACCCAUGUCUAGAUACCAGAUUUGUUUGAAUCCCUUGGCAGCUAGUGGACCACCGUACACGACAUACUA [theeternabot_sameState_MS2_Theo_A_17] | 29.8 | 47.1 | 44 | – | –
ACUAGAGGUGGAAGGAGCGGGAGACAUGAGCAUCACAUGAGGAUCACCCAUGUAGGAUCAUCCCAGGUAGGUCGCCAUGUCGAAA [h.hgmullin] | 88.4 | 290 | 173 | 218 | 363
AAACAUUGCUGCGAUACCAGACAUGAGGAUCACCCAUGUACCAAGGUAAGAAAAUAACAUGUCCCUUGGCAGCGCAGCAAUGAAA [MAT - Exclusion Theophlline B - Mod of Eli - D2] | 19.2 | 33.4 | 15.8 | – | –
GUACAUGAGGAUCACCCAUGUAUAGUUGAAGGAGCGACCAGAGGGUCAGGUAGGUCGCAGCACAUGGUGUAAACCCGUGUAUGCC [#1 Exclusion - Arginine A Attempt #22 (Inspired by Pi)] | 29.6 | 34.6 | 26.8 | 28.9 | 29.3
CACGAAAGAUCGGCCGCCACUCAUGUUUCUUACAUGAGGAUCACCCAUGUAUUUUCUUUCUUUUAGAGGACCGGGAUCGAGCGUG [#01 Same State - Tryptophan B] | 46.8 | 78.4 | – | 47.2 | –
AGACAUGUAAGAUAAAUGACUUAUACAGAUACCAGACUAGUCAAUGUCCCUUGGCAGCUGCAUAACAUGAGGAUCACCCAUGUAA [JR_ExcTheophyA_Sub009] | 20.6 | 27.5 | 24.4 | – | –
GUAUAUUGAAAACAAUAUACAGUGGGUGAACGAGGACCGGUACGGCCGCCACUCGGACAUGAGGAUCACCCAUGUCCAUGUGAAA [AstrosExyTryA#8] | 15.1 | 17.1 | – | 17.7 | –
AGGUACGAAAACGUGGGUGAGUCGUACCAACGAGGACCGGUACGGCCGCCACUCGAAUAAACAUGAGGAUCACCCAUGUAAUAAU [T''-M-T'-T-MS2 - Design 6] | 25 | 58.3 | – | 66.5 | –
UGUAUGGACUGAAGGAGCGGGUAAUAAAUCUGAGGAUCACCCAGGUAAUAGGCGAAAGCCGCCCAGGUAGGUCGCAGUCCAUACU | 13.3 | 27.5 | 23.1 | 18.8 | 14.7
